Entries after “also recorded” stand apart in the source; their conditions may differ.
How the values were obtained:
L929 cells [1] = test: L929 cell killing (cytotoxic/cytolytic/tumoricidal) assay; format: cell-based, mouse
Procedure: L929 fibrosarcoma cells were obtained from the Rega Institute, Leuven, Belgium.
After 18 h of culture at 37° C., viability of the cell cultures was assessed by dye uptake analysis. […] The plates were read spectrophotometrically at 577 nm with a Titertek multiscan MCC340 ELISA Reader (Flow Laboratories, McLean, Va.).

[2] = system: Trypanosoma brucei brucei; test: In vitro trypanocidal assay, T. brucei brucei; format: cell-based; conditions: for mortality of trypanosomes: data not shown
Procedure: (§1) The Trypanosoma brucei brucei AnTat 1.1 (EATRO 1125) pleomorphic bloodstream form was kindly provided to us by Dr. N. Van Meirvenne of the Institute for Tropical Medecine, Antwerp, Belgium, and the Trypanosoma brucei rhodesiense Trp 11 pleomorphic bloodstream form was kindly provided to us by Dr. E. Bajyana Songa (Dept. Molecular Biology, Free University of Brussels, Belgium)
(§2) After 5 h of incubation, the number of live (=moving) parasites was assessed (counting chamber) and compared the control wells in which only incubation medium was added to the trypanosomes. […] All treatments were done in quadruplicate and all reported in vitro trypanolysis experiments were repeated at least 3 times.

[3] = system: Trypanosoma brucei rhodesiense; test: In vitro trypanocidal assay, T. brucei rhodesiense; format: cell-based; conditions: 5 h; for mortality of trypanosomes: data not shown
Procedure: as §1, §2

C57BL/6 mice = test: TNF-α-induced lethal shock in mice; format: in vivo, mouse (C57BL/6)
Procedure: Female 10-weeks old C57BL/6 mice (Iffa Credo, France) were used in all in vivo TNF-induced lethal shock experiments.
Intravenous (i.v.) injection of 10-week-old C57BL/6 mice with 10 μg/mouse of mTNF-α causes death within 48 hours.
Ten weeks old C57BL/6 mice (5 to 6/group) were injected with different doses of wild type or mutant mouse TNF-α and the postinjection survival time was then assessed.

[4] = system: human interleukin-6 (IL6); test: IL6 production by hMVECb cells; format: cell-based; conditions: 24 hours
Procedure: Subsequently, the IL6 concentration in the supernatant of the cells was assessed using a commercially available hIL6 ELISA kit (Medgenix, Belgium).

[5] = system: human interleukin 8 (IL8); test: IL8 production by hMVECb cells; format: cell-based; conditions: 24 hours
[6] = system: 3LL-R Lewis lung carcinoma cells; test: Experimental metastasis inducing capacity on TNF resistant 3LL-R Lewis lung carcinoma cells; format: in vivo, mouse (C57bl/6); conditions: 17 days
Procedure: At this time, all mice were killed and the lung weight as well as the amount of cancer cell nodules in the lung was assessed.

[7] = In vivo half life of wild type and tip-deleted TNF-α (serum concentration); conditions: 1 μg/mouse i.p.
Procedure: An ELISA assay to measure the protein concentration of the wild type and tip-deleted or tip-mutated mouse TNF-α protein was developed. […] Subsequently, the plates were washed once with washing buffer (PBS, 0.05% Tween-20) and the remaining binding sites were blocked for at least one hour at 37° C. with 300 μl per well of PBS buffer supplemented with 1% BSA and 0.1% NaN3. Dilutions of sample or standard mTNF-α (0.01 to 10 ng/ml mTNF-α), made in 100 μl of PBS supplemented with 1% BSA, 1% rabbit serum, and 0.1% mertiolate are then added to each well and incubated for 2 hours at 37° C. […] Subsequently, the plates are washed four times with washing buffer wherafter 100 μl of straptavidin-horseradish peroxidase (Jackson Immunoresearch Labs), which has been diluted in sample diluent to a concentration of 100 ng/ml is added and incubated for 30 minutes at 37° C. […] The reaction is stopped by adding 100 μl per well of 2N H2SO4 wherafter the optical density is read at dual wavelength (450/595 nm).
Female 8 weeks old C57bL/6 mice (6 mice/group--Charles Rivers Deutshland) were injected intraperitoneally with 1 μg/mouse of either wild type mouse TNF-α or tip deleted TNF-α. Subsequently, the mice were bled 0.5, 5, 10, 15, 30, 60, 120, 180, or 240 minutes post-injection.

L929 cells [8] = conditions: cited from earlier work
LPS-induced shock = conditions: cited from earlier work
[9] = mTNF-α 1000 pg/ml, +p55 (5 μg/ml)
[10] = mTNF-α 10000 pg/ml, +p55 (5 μg/ml)

Which specific activity (L929 cells [1]; bioactivity on L929 cells, purified wild type) does the source give for “mTNF-α: Purified recombinant mouse tumor necrosis factor-alpha, produced in E. coli” here?
Its specific activity is ~2×10^8 U/mg.

And the “Tumoricidal activity (% lysis)” value (L929 cells [1]; mTNF-α 100 pg/ml, +p55 (5 μg/ml))?
The value was 0 ± 1%.

And the “Tumoricidal activity (% lysis)” value (L929 cells [1]; mTNF-α 100 pg/ml, -p55)?
Its value is 40 ± 2%.

And the “Tumoricidal activity (% lysis)” value (L929 cells [1]; [9])?
The value was 0 ± 1%.

What about the “Tumoricidal activity (% lysis)” value (L929 cells [1]; mTNF-α 1000 pg/ml, -p55) of the same molecule?
The value was 92 ± 3%.

And the “Tumoricidal activity (% lysis)” value (L929 cells [1]; [10])?
Its value is 93 ± 3%.

What about the “Tumoricidal activity (% lysis)” value (L929 cells [1]; mTNF-α 10000 pg/ml, -p55) of the same molecule?
The value was 98 ± 4%.

What about the specific activity (L929 cells [1]; purified recombinant, produced in E. coli, assay not stated) of the same molecule?
The specific activity was 10^8 units/mg.

What about the “concentration at which 50% of the animals (parasites) are killed” value ([2]; T. brucei brucei, 5 h) of the same molecule?
Its value is 5000 pg/mL.

And the trypanocidal specific activity ([2]; in vitro trypanocidal assay)?
Its trypanocidal specific activity is 2×10^5 U/mg of protein.

What about the “Trypanocidal activity (% lysis)” value ([2]; mTNF-α 100 pg/ml, +p55 (5 μg/ml soluble p55 hTNF-α receptor)) of the same molecule?
Its value is 25 ± 3%.

And the “Trypanocidal activity (% lysis)” value ([2]; mTNF-α 100 pg/ml, -p55)?
Its value is 30 ± 2%.

What about the “Trypanocidal activity (% lysis)” value [2, 9] of the same molecule?
The value was 41 ± 4%.

What about the “Trypanocidal activity (% lysis)” value ([2]; mTNF-α 1000 pg/ml, -p55) of the same molecule?
Its value is 45 ± 5%.

And the “Trypanocidal activity (% lysis)” value [2, 10]?
The value was 56 ± 3%.

And the “Trypanocidal activity (% lysis)” value ([2]; mTNF-α 10000 pg/ml, -p55)?
The value was 60 ± 4%.

What about the “concentration at which 50% of the animals (parasites) are killed” value [3] of the same molecule?
The value was 5000 pg/mL.

What about the lethal dose (C57BL/6 mice; C57BL/6 mice) of the same molecule?
The lethal dose was 10 μg/mouse.

And the time to death (C57BL/6 mice; i.v. 10 μg/mouse)?
Its time to death is ≤ 48 h.

What about the IL6 concentration ([4]; 333 pg/ml, experiment 1) of the same molecule?
The IL6 concentration was 1520 pg/mL.

And the IL6 concentration ([4]; 333 pg/ml, experiment 2)?
The IL6 concentration was 1900 pg/mL.

What about the IL6 concentration ([4]; 1000 pg/ml, experiment 1) of the same molecule?
The IL6 concentration was 1250 pg/mL.

What about the IL6 concentration ([4]; 1000 pg/ml, experiment 2) of the same molecule?
Its IL6 concentration is 1400 pg/mL.

And the IL6 concentration ([4]; 1666 pg/ml, experiment 1)?
The IL6 concentration was 1220 pg/mL.

And the IL6 concentration ([4]; 1666 pg/ml, experiment 2)?
The IL6 concentration was 1300 pg/mL.

And the IL8 concentration ([5]; 333 pg/ml, experiment 1)?
The IL8 concentration was 1050 pg/mL.

And the IL8 concentration ([5]; 333 pg/ml, experiment 2)?
The IL8 concentration was 1700 pg/mL.

What about the IL8 concentration ([5]; 1000 pg/ml, experiment 1) of the same molecule?
The IL8 concentration was 1680 pg/mL.

What about the IL8 concentration ([5]; 1000 pg/ml, experiment 2) of the same molecule?
Its IL8 concentration is 1800 pg/mL.

And the IL8 concentration ([5]; 1666 pg/ml, experiment 1)?
Its IL8 concentration is 1200 pg/mL.

And the IL8 concentration ([5]; 1666 pg/ml, experiment 2)?
The IL8 concentration was 1650 pg/mL.

And the “general condition of mice” value [6]?
Its value is “all suffered from severe respiration problems”.

What about the mean lung weight ([6]; 5 μg/mouse i.p. 5 hours prior to 3LL-R cells) of the same molecule?
Its mean lung weight is 1088.2 ± 315.7.

What about the “concentration TNF-α” value ([7]; Experiment 1, 0.5 minutes) of the same molecule?
The value was 1000 ng/mL.

And the “concentration TNF-α” value ([7]; Experiment 1, 5 minutes)?
Its value is 880 ng/mL.

And the “concentration TNF-α” value ([7]; Experiment 1, 10 minutes)?
Its value is 650 ng/mL.

What about the “concentration TNF-α” value ([7]; Experiment 1, 15 minutes) of the same molecule?
Its value is 500 ng/mL.

And the “concentration TNF-α” value ([7]; Experiment 1, 30 minutes)?
The value was 420 ng/mL.

And the “concentration TNF-α” value ([7]; Experiment 1, 60 minutes)?
Its value is 320 ng/mL.

What about the “concentration TNF-α” value ([7]; Experiment 1, 120 minutes) of the same molecule?
The value was 20 ng/mL.

What about the “concentration TNF-α” value ([7]; Experiment 1, 180 minutes) of the same molecule?
The value was 10 ng/mL.

What about the “concentration TNF-α” value ([7]; Experiment 1, 240 minutes) of the same molecule?
Its value is 0 ng/mL.

What about the “concentration TNF-α” value ([7]; Experiment 2, 0.5 minutes) of the same molecule?
The value was 1000 ng/mL.

What about the “concentration TNF-α” value ([7]; Experiment 2, 15 minutes) of the same molecule?
Its value is 550 ng/mL.

And the “concentration TNF-α” value ([7]; Experiment 2, 30 minutes)?
The value was 500 ng/mL.

What about the “concentration TNF-α” value ([7]; Experiment 2, 60 minutes) of the same molecule?
The value was 480 ng/mL.

And the “concentration TNF-α” value ([7]; Experiment 2, 120 minutes)?
The value was 20 ng/mL.

And the “concentration TNF-α” value ([7]; Experiment 2, 180 minutes)?
Its value is 0 ng/mL.

And the “concentration TNF-α” value ([7]; Experiment 2, 240 minutes)?
Its value is 0 ng/mL.

For “uromodulin: glycoprotein which binds TNF-α via its lectin-like domain”, which “effect on TNF-α cytotoxic/tumoricidal activity” value (L929 cells [8]) is on record?
The value was “does not block the tumoricidal activity of TNF-α”.

What about the “effect on LPS-/TNF-/endotoxin-induced shock in vivo” value (LPS-induced shock) of the same molecule?
The value was “able to potently inhibit the TNF-induced shock in vivo; also recorded: able to potently inhibit the LPS-induced shock in vivo”.

B1: mouse interleukin 1β: mouse interleukin 1β (protein, UniProt P10749 118-269, looked up)
Interleukin-1 beta: VPIRQLHYRLRDEQQKSLVLSDPYELKALHLNGQNINQQVIFSMSFVQGEPSNDKIPVALGLKGKNLYLSCVMKDGTPTLQLESVDPKQYPKKKMEKRFVFNKIEVKSKVEFESAEFPNWYISTSQAEHKPVFLGNNSGQDIIDFTMESVSS
Which mortality of trypanosomes ([2]; T. brucei brucei, 5 h) does the source give for B1 here?
The mortality of trypanosomes was “do not cause any mortality”.

And the mortality of trypanosomes [3]?
Its mortality of trypanosomes is “do not cause any mortality”.

B2: mouse interleukin 1α: mouse interleukin 1α (protein, UniProt P01582 115-270, looked up)
Interleukin-1 alpha: SAPYTYQSDLRYKLMKLVRQKFVMNDSLNQTIYQDVDKHYLSTTWLNDLQQEVKFDMYAYSSGGDDSKYPVTLKISDSQLFVSAQGEDQPVLLKELPETPKLITGSETDLIFFWKSINSKNYFTSAAYPELFIATKEQSRVHLARGLPSMTDFQIS
What does the source list for B2?
mortality of trypanosomes ([2]; T. brucei brucei, 5 h): do not cause any mortality; mortality of trypanosomes [3]: do not cause any mortality

B3: hTNF-β: Human recombinant TNF-β (lymphotoxin) (protein, UniProt P01374 35-205, looked up)
Lymphotoxin-alpha: LPGVGLTPSAAQTARQHPKMHLAHSTLKPAAHLIGDPSKQNSLLWRANTDRAFLQDGFSLSNNSLLVPTSGIYFVYSQVVFSGKAYSPKATSSPLYLAHEVQLFSSQYPFHVPLLSSQKMVYPGLQEPWLHSMYHGAAFQLTQGDQLSTHTDGIPHLVLSPSTVFFGAFAL
What does the source list for B3?
mortality of trypanosomes ([2]; T. brucei brucei, 5 h): do not cause any mortality; mortality of trypanosomes [3]: do not cause any mortality

Source: patent publication US5891679A, “TNF-alpha muteins and a process for preparing them” (priority 1993, dated 1999)
